This series concerns the molecule itself. The series is described as follows: native MS.

The results in this text go back to PMC2613632 (The Journal of Biological Chemistry, 2009).

As usually defined, the stoichiometry N is the number of molecules, sites or subunits per partner or assembly.

B1: MacB, His-tagged, purified (natural protein, E. coli, UniProt P75831 1-648, looked up)
chain: MTPLLELKDIRRSYPAGDEQVEVLKGISLDIYAGEMVAIVGASGSGKSTLMNILGCLDKATSGTYRVAGQDVATLDADALAQLRREHFGFIFQRYHLLSHLTAEQNVEVPAVYAGLERKQRLLRAQELLQRLGLEDRTEYYPAQLSGGQQQRVSIARALMNGGQVILADEPTGALDSHSGEEVMAILHQLRDRGHTVIIVTHDPQVAAQAERVIEIRDGEIVRNPPAIEKVNVTGGTEPVVNTVSGWRQFVSGFNEALTMAWRALAANKMRTLLTMLGIIIGIASVVSIVVVGDAAKQMVLADIRSIGTNTIDVYPGKDFGDDDPQYQQALKYDDLIAIQKQPWVASATPAVSQNLRLRYNNVDVAASANGVSGDYFNVYGMTFSEGNTFNQEQLNGRAQVVVLDSNTRRQLFPHKADVVGEVILVGNMPARVIGVAEEKQSMFGSSKVLRVWLPYSTMSGRVMGQSWLNSITVRVKEGFDSAEAEQQLTRLLSLRHGKKDFFTWNMDGVLKTVEKTTRTLQLFLTLVAVISLVVGGIGVMNIMLVSVTERTREIGIRMAVGARASDVLQQFLIEAVLVCLVGGALGITLSLLIAFTLQLFLPGWEIGFSPLALLLAFLCSTVTGILFGWLPARNAARLDPVDALARE
As to B1, the “stoichiometry N” value was 2.
